Drawing on PMC8904820, this text covers prenyltransferase activity of HRT1/HRBP-nanodisc complexes, raw [14C]IPP incorporation (12.5 nCi [14C]IPP in the reaction) for one substance.

This experiment has as its target HRT1-REF bridging protein (HRBP) (Hevea brasiliensis).

The substance “Hevea rubber transferase 1 (HRT1) (enzyme)” had a prenyltransferase activity of HRT1/HRBP-nanodisc complexes, raw [14C]IPP incorporation (12.5 nCi [14C]IPP in the reaction) of 12200 dpm.
